In the domain aggregation screens of Martell et al. (2025):

Experiment: soluble fraction after stress (log2 fold change); higher = more stays soluble; pooled small domains, quantitative proteomics
Details: stress: 50 degC
Outline: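 Pooled custom libraries of small protein domains were measured in a high-throughput format, with quantitative proteomics as the read-out. Each library was stressed at 50°C. Aggregation propensity is given as the base-two logarithm of the fold change in how much of each protein stays soluble after the stress. Higher values mean a larger share of the protein remains in solution.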

Sequence	soluble fraction (log2)
HMQVSDAAQLAEVVKTVLAENPAAVGDYRKGKKAAIGFLLGQVMRHMRGTANPAVARQLLEQALEDE	0.0337
HMPWLIAVTVDGVNLPRFLRRAGEMGLLLTGVRIRGKHLSAFAREDDVPPLRMMAENGGWRFSVGN	-1.61
HMHHGALKQALLDETARILAEEGESALSLRRLASNLGVSRTAPYNHFDNKDALLSAVAEEGFRR	-0.032
HMRLMLITPTEFDEAAEIADNLKDRRAVLMNVEKTDNETARRLIDFLSGVVYALGGKIMRISAQAYVLT	-0.236
HMGAPLAVGDSVRVVVSGPRAFVYTAPNGALSGAVRNGAAFTVLELSPDNTWARIGSGEWIKVEFLATG	0.0428
HMRNLFWTEAQNAQNELNAMRINALTQSIRRIEPNFRGIPSLRDPNRPIPNEEVRDYENYLNRILP	0.119
HMGIMNFDTWLKSLPGTPTPTIAAKKSGLAAPTLLRHVERGYSTADNVIAIAKAYGVSPIDALVDNGML	-0.695
HMQPKKLNMYYDYVRQLLESHPYLSAAQIEDRLKEEFTELPMVHSKTVFNFVENIRLQHGINKHA	-0.152
HMRPEFVVALSGADLGKLHRLYELGEVLSREDDAEGVTHAVLRVPDKHEHAFHAEFPQARPM	0.378
HMARDDVIRLVQLSLDHLPAKYADALEWKYVEGLSTKEIAARLELGSEAAESLLARARRAFKNDFQEIFES	-1.41
HMARGLRPVPSVFGLDVRQATRTLYAAGFQVSIARGSDVRTRPAAGTLLRVGSTVQLEMPRMESA	-1.54
HMSKSPELMEKIKEFAEGYFRENGETPSNKTIAGAMGMGRSTVYYYLVDMAQRGMISYENGVISTEKIRKL	-1.32
HMEQVTMSNFLDKWGTSTKSPNAWYTSLSPMQKAEAKLLKEESGLTWNKWYEKNIYVGDGTN	0.249
HMDREIVEAIVPLEAAGKRFDAALAEMFPEFSRSRLTEWIKAGDALLAGEIVKPKVSVRGGEAVSLSIRV	-0.485
HMQPIAVHIGTENPMKSLSDLSVVRAQFTSGGRVIGSVAVLGPTRMQYSRIVGMMRFMQQRLDLLLKG	0.0586
HMGAAITEAEAKQIALDHAGVSESETERMRVKLGRDDGVQEYEVNFYVGNREYDYDINAATGEIRSHDSE	0.0811
HMSQEILSNQSIKDMIELGFEEQTIIDKIQTSTSDFDTTIEELKALKQLGASPTILSAMIKSIKK	0.285
HMASIEPLKTSIRIIWYINGEKDSETLLNTPPTAANKANAQKIADMVEQQIQMGIFNRDAVFPSSPKRQ	-1.87
HMVDIVLDILKIVAEKQPGNQFSQSILMQYQERGGLSKKQLEGLYGKAKRIPEIPQNKLATLEAIILR	-1.41
HMARPLHVDALIHLGTEIGSRVGGAHAGPHLLVAGHSPMSELVYARLLGIPTLGWMRGQLTFVNLSK	0.155
HMEGLEKDDGGYYFEKDNGERARNEWVYVEYEGKGYWYYMTDYGYPLRSAITPDGYKVNSNGHWIDEGN	-0.825
HMGLLGIYPNPVEGGSVRLLSDADLFGSRFELYDQSGKLVLNGFVTEGNFVSVKGISSGLYISVSYT	0.0024
HMQTASVRFADGQLEVKQKGLQRVSVYSLNGMTVANKAVQGQDYVTISLPRAAYIVKITTQNGSFTKVI	-0.207

Sequence	soluble fraction (log2)
HMQAKDVEVPDYVGKSFVSIKENNPNDFKFEVKSEYDESKEMGVILDQEPKGGSMKVKSGSTITVTV	-0.0106
HMHGETLAAKRREEIKVRIQNIYDQSEQIFGYRKITATLRSQGVVVSEKLVSQLMRELEISSVS	-3.87
HMNPDMIAGVLKVPAAAGRLRSALFELGVVDDESYDDDGASRLTVTASQSDLERIVAQAGLVFEDVLVERR	-0.0627
HMRGPVRLDLPVSGLSRSSGPALAKILQAVPGVHKAHVNVRSGKATLEYDPARAKVTDFVEVIRSAGFGT	-0.0414
HMDEGQEHYVKETDLPFYSEADPASSVIFPLVLNQKLIEKERKDDWIRALEPTTGLVGWVLLKSLSPQQLS	0.124
HMAPTADSVPFVIRSVVGGAQPFIVLEDGSKLLVGGVYRKYRLVAVENTRIIFEGPRTAIVT	-1.33
HMLSLGQQIRNHVLSRIESGEWPEGSRIPSEAKLVELLGASRMTIHIALRDLSAEGVLLRKQGAGTFVAPR	-2.47
HMSYTDIILKMSNVNFLTKVNFTNSEKNKNIKNGNFLIKKGKNRITAAFDYKDNELVISKSNLRNTFL	-0.381
HMERVIYLLNGREVPAAEIRAAEPEALTVDRFYSSENLPAEYRDRNPELVVAFTAEEPLRHY	0.358
HMNVDSLPGEKAVVIKTIDNLRGTGQAVVNGLEWSAKSKDETIIDEGKVVRIVAVEGVKLVVEEE	0.0762
HMQKMPEMQILPNGKVKLPDFSGINMRKAAELLQYGKLRLQPYGSGTAYQQKPAAGTEVDEGTVVEIWF	-0.218
HMSPIQLKYNEYLIYIDEGKINTAEIHGNKITGKLKEGSEYVVTIYPELIASITEKLAENNVQTQLIQ	-0.0206
HMDIEELLSRSTDRLSRQTEIRRLLADAQGRPNISSLARRFKVARRTVIRDLQELIRRGEVPPEIYPK	-0.744
HMTTLEGIEKYLGSGMIRGIGPAYAGRLTKVFGEAVFDVIEQSPERLREVEGIGPKRVSRIVSGWAEQ	-0.264
HMGEDLTIDQLAAEVDMTVRNIRAHQARGLLPPPTIKGRIGYYGPLHRRRLQQIRAMQEEGLNLAAIAKVV	-0.609
HMSTPERQEVLDILKRQGEMTPLQIAGQISRTSKSVSNILSKLKREGFVANGAKYGSWVSTES	0.0492
HMSDEEAISKLPGVGPAILEKLKEAGYNDIMTIAVDSPKNLAELAEIGEPTAAKIIAAAKKAAD	0.0933
HMPDLSGEEQQIVDILAQRGNLQINTLVVETDIPVHKMNAILFELEMKGVVRVLAGGMYQLL	-0.263
HMEEEEITIHIIGEVKYPGIVILKTGQRIIDAIDAAGGETEEADLNKINLAQLLSDGDKIYVPSINDN	-0.0785
HMFDEVKDAARRLAALLDQAGGTLTLNDKSAPEEVAALTGMSKKVFKRALGHLMSRSEVVVADGRITKKD	-0.289
HMVKLSDGIVEHIKSLIMAGRLKPGDKLPPEREFAATLGVSRTALREAVRTLSLMGLLDARQGEGTFVSG	-0.116
HMVEDPADNQKAADAVIKKISEIGEVTESSENLIKEARASYDALTDNQKELVTNYDVLVQAEAQLENIKD	-0.0306
HMSTLGIRIKHYRTDSNLTQKELAGLINVKRDALANWETDRALPDVMNLKKLAEVFQVSTDELLQV	-0.927

Sequence	soluble fraction (log2)
HMLISAESVKRRLEMIRHLILLGDYEDVTAQVIKLNPAANEYKLTPIIEELNGGKYQEALEKINSYLSKF	0.0802
HMRDSLVGLEGVVVREVDDETLAGKVQIGSMEWSARSESGRIPAGRRVVVLRAEGVHIVVKEV	-0.205
HMEEIQLILAKNLKSIREKEKLSLEKVSQLTGVSKTMIGQIERGDSSPTLTTIWKIANGLKVSFTSLINNP	-2.01
HMSRMGDSIKSLRSRNNMSQDALAEKLNVTRQAISNWENSKTQPDADTLKNLGIIFNVTVDEIINNDF	0.0528
HMAGYDTYMVDRDAELLPWLLETLQRESRSKVKATLQGNGIKVNGKRVTQFNYPLKAGMKVSVSKSK	-0.0376
HMGYGEQEAEATKYMSLHAIMSADETLSKMYTPENQHKLMTHVMEQNGIKNVKDYLTPPSELP	-0.102
HMRVEEVGYGEFLQMAEERDLAEVQVTDTEIIFSDKDTPPNYYKTGRMDDPFLVDRLYSAGIRDFGE	-0.298
HMAATVKVPDLTKMTPDEAQRALGQVGLKGKQGDDVDDDSVPVGYIAKQDEAPNSDAKAGDTITYHL	0.16
HMGTGTYQVWSANGLGVRMRSGPGTGYRILAVYSVGTSVTVLQKGAYWSYIRVGSRTGYMMNQFLVSG	0.139
HMLFSDSDLKSLLDKDISYVIEMYKAASKEQKRIISDMVAQKVMEKKYIDANILIQLGELTGINYMDL	-0.472
HMSFNLSETKKLILEEIQKGVSSVTQIAATAGISKGMTYNHLRELKLMGYIADGDSGYVITDAGKIAS	-0.04
HMAMLSKREAEILKLTAKGHSSTDIAQRLTISVNTVEFHRRRIMQKLNAANVAEAVGKAAELGLFF	-0.438
HMLEQISDPEVLSKLADEVLSQQEKMVMDYRKGKTAAFQGLMGQMMKKTKGKGNPAKIQEILAQKL	0.193
HMSMVGNIEKILVTGESKKSSELLAGRTENNRVVNFTGEKVLIGSMVNVRIEEVFPNSLGGSYLPS	-0.16
HMSMDYYNILGVNRNASTGEIKKAYKRASMQHHPDRGGNSDEFIKVQQAYDTLSDNHKRQAYDNP	0.0774
HMAPSIPSGADIRAAREAAGINLRDFARIVDGPGIAIWSRYETGTPIRVKSISPEVWQKVRDFISQHG	-0.826
HMPLSLESVSEGGRNDTAARIAGYLIAKGLNVDFARFFLQSWNTKNKPPLDDTEIDTIVNSIMKTHERKNQ	-0.361
HMNVVGAKGRIIKISSSEEKMAVAEIEGHGEWNIRTNSEIELFVGKSVEVIEMKGNYLLVNQI	-0.0624
HMERYSVQVGSFRNMRYAERLKQELQGEDFPAYIEKSGEFNRVRVGKGLTLEEATQLEQVLRKSGYQTVIV	-0.395
HMEEVVIPDLAGLTEEEATKVLMAKELKLKVSGSQHSDIEKGLIISQDPPAGEKGAKNSQVAVVTSSG	0.103
HMAQILEPSVALKKLLELKQAGFEDETLVGWIRKVEFTRPLTPDDLLEWKGAGISQAVIRAAM	-0.0938
HMDVTSLDMLRFLMDQHGLRQQDLSELGSQGVVSEILAGKRELNLRHIGALARRFKVPPEVFLPA	-0.631
HMQQPIPGEAYLTRRPGSDHFQIAFTIDGHRVRESSGTSDKVAAAALAQKRYEEVWREIKLGEK	0.2
